Patent publication US20230340154A1 (Hoffmann-La Roche, published 2023)

Target: T1, murine CD40 (mouse, UniProt P27512 20-289)
T1 construct: Endogenous CD40 on cells in the tumor microenvironment of C57BL/6J mice; also called mouse CD40; muCD40
T1 sequence: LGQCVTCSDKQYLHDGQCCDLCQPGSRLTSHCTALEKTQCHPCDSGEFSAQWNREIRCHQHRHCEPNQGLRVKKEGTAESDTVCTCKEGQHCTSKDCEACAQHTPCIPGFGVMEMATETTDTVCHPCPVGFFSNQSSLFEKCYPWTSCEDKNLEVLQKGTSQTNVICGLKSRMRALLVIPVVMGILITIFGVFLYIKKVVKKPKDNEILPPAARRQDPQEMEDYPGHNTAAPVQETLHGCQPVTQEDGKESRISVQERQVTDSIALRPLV
Assay: in vivo fluorescence imaging of the Alexa647-labelled antibody in TC-1 tumors (devoid of FAP expression), four days after i.p. injection
Description: To assess FAP-CD40 antibody access to the TC-1 tumor, we intraperitoneally injected the anti-FAP-CD40 antibody labeled with Alexa647 into TC-1 and mEERL95 tumor-bearing mice that underwent local irradiation. The antibody was detectable in both tumors four days upon administration. No significant difference in the fluorescence intensity was detected in both TC-1 and mEERL95 tumors (FIG. 4H) which present similar CD40 mRNA expression levels (FIG. 4C).

binding result: binds
B1: muCD40 x FAP (28H1) 4+1 bispecific antibody (VH on knob and VL on hole) (P1AD9139) (bispecific antibody)
light: DTVLTQSPALAVSPGERVTISCRASDSVSTLMHWYQQKPGQQPKLLIYLASHLESGVPARFSGSGSGTDFTLTIDPVEADDTATYYCQQSWNDPWTFGGGTKLELKRTVAAPSVFIFPPSDEQLKSGTASVVCLLNNFYPREAKVQWKVDNALQSGNSQESVTEQDSKDSTYSLSSTLTLSKADYEKHKVYACEVTHQGLSSPVTKSFNRGEC
heavy 1: not shown
heavy 2: EVQLVESDGGLVQPGRSLKLPCAASGFTFSDYYMAWVRQAPTKGLEWVASISYDGSSTYYRDSVKGRFTISRDNAKSTLYLQMDSLRSEDTATYYCGRHSSYFDYWGQGVMVTVSSASTKGPSVFPLAPSSKSTSGGTAALGCLVKDYFPEPVTVSWNSGALTSGVHTFPAVLQSSGLYSLSSVVTVPSSSLGTQTYICNVNHKPSNTKVDKKVEPKSCDGGGGSGGGGSEVQLVESDGGLVQPGRSLKLPCAASGFTFSDYYMAWVRQAPTKGLEWVASISYDGSSTYYRDSVKGRFTISRDNAKSTLYLQMDSLRSEDTATYYCGRHSSYFDYWGQGVMVTVSSASTKGPSVFPLAPSSKSTSGGTAALGCLVKDYFPEPVTVSWNSGALTSGVHTFPAVLQSSGLYSLSSVVTVPSSSLGTQTYICNVNHKPSNTKVDKKVEPKSCDKTHTCPPCPAPEAAGGPSVFLFPPKPKDTLMISRTPEVTCVVVDVSHEDPEVKFNWYVDGVEVHNAKTKPREEQYNSTYRVVSVLTVLHQDWLNGKEYKCKVSNKALGAPIEKTISKAKGQPREPQVCTLPPSRDELTKNQVSLSCAVKGFYPSDIAVEWESNGQPENNYKTTPPVLDSDGSFFLVSKLTVDKSRWQQGNVFSCSVMHEALHNHYTQKSLSLSPGGGGGSGGGGSGGGGSGGGGSEIVLTQSPGTLSLSPGERATLSCRASQSVSRSYLAWYQQKPGQAPRLLIIGASTRATGIPDRFSGSGSGTDFTLTISRLEPEDFAVYYCQQGQVIPPTFGQGTKVEIK
notes: Four anti-mouse CD40 (FGK4.5) Fabs, human IgG1 P329G LALA knob-into-hole Fc, and 28H1 VH on the knob chain and VL on the hole chain; That paragraph says only 'anti-FAP-CD40 antibody'; also called FAP-CD40; anti-FAP-CD40
